Reference: the MegaScale stability set (Tsuboyama et al. 2023)

B1: r4_43_TrROS_Hall (parent)
chain: DLVTIKVPLENLEEIKKAAEKAGFKIVSISYDKENKEVTIVIEKKK

Variants of: B1
Experiment: folding stability dG (cDNA display proteolysis); higher = more stable
Conditions: PBS, room temperature

Folding stability dG [kcal/mol], by site and new letter:
G23: Y 3.44, S 3.28, H 3.79, L 3.52, C 3.84, F 3.61, R 3.52, M 3.46, N 3.44, D 2.75, E 3.18
Y31: I 3.27, H 3.41, K 3.34, A 3.06, N 2.95, D 2.58, R 3.39
A22: F 3.67, Y 3.95, V 3.75, L 3.66, R 3.68, K 3.58, W 4.33, T 3.33
E43: L 4.39, N 3.78, F 4.59, V 3.63, C 4.02, Y 4.32
K6: T 3.77, L 3.31, E 2.83, I 3.75, S 3.52, R 3.84, F 3.62, C 3.32, Q 3.04, W 3.39, A 3.51, G 2.98
N35: W 3.75, R 3.98, V 3.17, E 3.47, T 3.4, S 3.55, H 3.54, G 3.61, F 3.5, Q 3.54
K44: P 3.55, C 3.76, I 3.93, F 4.48, D 3.54, E 3.58
E14: L 3.53, V 3.71, G 3.86, W 3.86, C 4.03, M 3.89, P 3.95, D 3.68, H 4.06, Y 3.75
K36: D 3.28, E 3.22, R 3.88, I 3.54, N 3.51
V3: A 3.33, W 4.34, N 3.25, F 4.06, C 3.72, H 3.69
K33: F 3.61, G 3.28, H 3.73, N 3.74, E 3.43, D 3.11
T4: C 3.44, Y 4.13, H 3.64, V 3.48, N 3.45, E 3.5, K 3.56
K17: H 3.83, P 2.14, Y 4.27, N 3.17, C 3.75, I 3.8, S 3.72, F 4
L2: V 3.91, C 3.41, N 3.23, M 3.66, T 3.93
K16: E 3.29, S 3.58, G 3.4, A 3.75, Y 4.02, H 3.29, V 3.6
V27: F 3.87, W 4.34, Q 3.48, G 2.59, T 3.77, I 3.57, P 1.89
I26: T 2.76, C 3, E 1.75, N 1.35, V 3.41, R 1.21, G 0.98, L 3.59, S 1.81
P8: I 3.5, M 3.81, D 3.39, A 3.6, Q 3.53, W 3.7, G 3.77, F 3.75, E 3.19, T 3.68
V41: H 3.26, Y 3.71, Q 3.5, R 3.47, D 2.77, M 3.48, S 3.51, K 3.47, C 3.33, I 3.64
A18: P 1.8, L 3.55, F 3.45, N 3.5, E 3.65, V 3.73, T 3.43
K21: T 3.9, L 3.57, M 4.03
K46: Y 4.33, P 3.71, C 3.83, W 4.4, V 3.93, E 3.84, L 3.65, Q 3.86, D 3.55, M 3.55
E10: S 3.85, V 3.68, N 4.02, D 3.29, K 3.61, H 3.41
K25: W 3.57, N 3.34, V 3.08, P 2.05, I 3.56, T 3.58, H 3.2, Q 3.29
I42: E 1.39, K 2.34, G 2.97, C 3.24, H 2.83, D 0.038
S30: L 3.74, G 3.22, K 3.59, P 0.669, I 3.66
E37: A 3.75, S 3.81, N 3.62, L 3.62, Q 3.59
D32: P 2.77, T 3.81, F 3.67, I 3.39
K45: R 3.94, E 3.5, T 3.99, V 4.13, N 3.84, C 3.87, Q 3.73, M 3.93, G 3.87
V38: M 3.43, A 3.79, Y 4.2, C 3.57
I29: Y 4.25, G 1.61, L 3.85, H 2.76, M 3.79, A 3.16, R 2.47
I40: Y 2.75, L 3.98, V 3.81, T 1.73, M 3.77, C 2.81, A 2.62, S 0.271
E13: Q 3.6, P 3.52, N 3.6, F 3.99, R 3.2, L 3.9, I 3.69, G 3.63, Y 3.77, S 3.54, W 4.08
I5: Q 3.15, W 4.23, A 3.14, E 2.86
F24: M 2.55, V 2.74, K 2.51, Y 3.53, D 2.47, P 1.47, L 2.8, E 2.85
L12: A 3.63, F 3.75, R 2.8, W 3.67, T 3.23, I 3.73, D 2.46
T39: Q 3.36, Y 3.83, I 3.66, M 3.52, W 4.01, K 3.42, L 3.36, E 3.22, F 3.69, P -0.044
N11: L 3.67, I 3.73
V7: T 3.57, E 2.93, S 3.71, R 3.3, P 2.19, C 3.66
E34: N 3.77, K 3.83, P 3.68, A 3.48, H 3.92, M 3.74, W 3.96, Q 3.89
L9: K 3.66, H 3.57, A 3.66, T 3.46, G 3.08, M 3.53, N 3.58
A19: L 3.69, S 3.69, N 3.55, F 3.52, Q 3.37, R 3.11, T 3.8, I 3.61, H 3.45, W 3.99, V 3.97
D1: F 3.9, H 3.83, Q 3.82, M 4.1, E 3.66, I 3.87
E20: R 3.72, S 3.66, H 3.6, K 3.62, N 3.55, L 3.96, F 4.07, W 3.99, T 3.27, D 3.49
I15: M 3.42, Y 3.88, T 3.38, K 3.37, L 3.71, Q 3.58, H 3.73
S28: N 3.42, Y 3.88, I 3.39, C 3.69, Q 3.48
